Data from the supplement of paper PMC10065799, “High-throughput profiling of sequence recognition by tyrosine kinases and SH2 domains using bacterial peptide display” (eLife, 2023).

Molecular target: Jak2 (UniProt O60674)
Experiment: phosphorylation enrichment, bacterial display (enrichment ratio); higher = better substrate or ligand; peptides without Tyr show the background
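Throughout, for SH2 binding enrichment of the phosphorylated peptide, bacterial display: peptide library displayed on the E. coli surface as eCPX fusions, selected cells deep-sequenced, score is each peptide's frequency after selection divided by its frequency in the input.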
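Throughout, for phosphorylation enrichment, bacterial display: 11-residue human phosphosite peptides and single-mutation variants displayed on the E. coli surface, counted by deep sequencing, each peptide's frequency after selection divided by its frequency in the unselected input library; frequency after pTyr selection over input frequency; kinase dosed for 20-30% of maximal phosphorylation in three min.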

Chain of Jak2 (O60674 whole entry, looked up): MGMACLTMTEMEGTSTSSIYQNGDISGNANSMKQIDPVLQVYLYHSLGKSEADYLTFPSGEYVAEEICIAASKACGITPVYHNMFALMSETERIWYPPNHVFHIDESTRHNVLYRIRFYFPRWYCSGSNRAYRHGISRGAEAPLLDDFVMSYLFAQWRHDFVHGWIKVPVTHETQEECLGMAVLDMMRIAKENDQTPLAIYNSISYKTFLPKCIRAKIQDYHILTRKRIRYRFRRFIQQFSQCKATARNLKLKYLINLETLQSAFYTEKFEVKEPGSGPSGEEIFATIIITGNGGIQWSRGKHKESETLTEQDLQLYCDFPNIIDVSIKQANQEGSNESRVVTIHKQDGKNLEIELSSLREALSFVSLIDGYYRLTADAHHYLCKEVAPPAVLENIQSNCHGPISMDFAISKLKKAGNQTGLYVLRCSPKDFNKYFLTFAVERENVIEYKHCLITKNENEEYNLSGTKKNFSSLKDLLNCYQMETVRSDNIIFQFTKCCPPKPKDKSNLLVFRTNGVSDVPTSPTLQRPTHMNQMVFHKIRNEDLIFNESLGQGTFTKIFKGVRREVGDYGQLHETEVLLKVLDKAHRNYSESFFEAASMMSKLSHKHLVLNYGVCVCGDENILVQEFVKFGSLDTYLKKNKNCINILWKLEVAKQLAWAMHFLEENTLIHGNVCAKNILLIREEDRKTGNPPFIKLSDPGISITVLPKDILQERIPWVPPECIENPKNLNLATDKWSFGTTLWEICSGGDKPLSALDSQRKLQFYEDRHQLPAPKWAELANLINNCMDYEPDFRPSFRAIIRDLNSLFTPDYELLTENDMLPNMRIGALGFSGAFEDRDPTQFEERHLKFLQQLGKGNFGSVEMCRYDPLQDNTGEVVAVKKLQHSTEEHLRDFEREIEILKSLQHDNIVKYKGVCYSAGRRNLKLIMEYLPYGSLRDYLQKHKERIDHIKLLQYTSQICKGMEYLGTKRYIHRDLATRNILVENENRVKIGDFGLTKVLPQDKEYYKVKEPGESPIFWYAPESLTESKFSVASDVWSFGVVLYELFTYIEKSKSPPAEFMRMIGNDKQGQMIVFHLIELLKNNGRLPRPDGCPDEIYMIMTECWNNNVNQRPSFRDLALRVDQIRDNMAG

Sequence | phosphorylation enrichment
PFSNSYENSLI [EPOR_Y489_P488S_YF] | 1.16
GHRPVYSEDEQ [CHST6_Y362_Y358H] | 0.894
IEENGYNTYAS [FGF10_Y161] | 0.802
SVTCTNSPALN [TP53_Y126_Y126N] | 1.08
DGFIDYAEFAK [MCFD2_Y138_YF] | 1.16
VFFDLYGGEKF [PTPN11_Y66_D61V_YF] | 0.835
DGSALYTGSAL [COL6A3_Y524] | 0.591
AHAGEYGEEAL [HBA1_Y25_A27E] | 1.35
RLKAKYAAATG [GLI3_Y933] | 0.692
YGAHKYHPLPV [OAT_Y55_N54K] | 0.557
AISEGYKDFRA [CDA_Y79_V75I] | 0.617
ARKWGYTVKGI [OAT_Y158] | 0.668
FCRHNYGVVES [HLA-DRB1_Y112_YF] | 0.632
EKMWSYMKSAE [GRIA3_Y705] | 0.719
KNRDVYSSDYF [USP24_Y2134] | 0.945
LIDSSYLTPTA [GREB1L_Y1063_R1066P] | 0.8
FEGAIYRKDIG [GART_Y417_V421I] | 0.617

Sequence | phosphorylation enrichment
RQAQAYRGQRV [TSHR_Y706] | 1.62
LIHLHYIRKDF [BBS4_Y43_YF] | 0.787
QTLTDYDIRFF [CSNK2A1_Y131_YF] | 0.998
REVPVYTYSEP [FAM120B_Y368_D370Y] | 1.13
IQRSLYDRPAS [PDGFRA_Y762] | 0.577
TKDTFYKQPMF [GBA_Y451] | 0.535
PLDGEYVTLQI [TP53_Y327_F328V] | 1.37
LIGTPYWMAPE [PAK5_Y608_V604I] | 1.17
RSHLPYDVTPE [IQGAP3_Y1098] | 2.28
EAVLHYKHQNQ [MTOR_Y1804] | 0.641
VPLATYMQIYK [RPL21_Y30_R32Q] | 0.51
ARSHIYTFASC [MEFV_Y741] | 0.866
GLGVTYEQALA [MAP2_Y996] | 0.724
DFRTTYVNANE [KCNH2_Y475_N470D] | 0.649
FIPFRYPKEFQ [IDS_Y234_H229Y_YF] | 0.548
VVHSSYDEIEG [SEC24A_Y263] | 0.892

Molecular target: SHP2-C SH2
Experiment: SH2 binding enrichment of the phosphorylated peptide, bacterial display (enrichment ratio); higher = better substrate or ligand; peptides without Tyr show the background

Sequence | SH2 binding enrichment
PFSNSYENSLI [EPOR_Y489_P488S_YF] | 1.13
GHRPVYSEDEQ [CHST6_Y362_Y358H] | 0.736
IEENGYNTYAS [FGF10_Y161] | 0.64
DGSALYTGSAL [COL6A3_Y524] | 0.641
AHAGEYGEEAL [HBA1_Y25_A27E] | 0.599
RLKAKYAAATG [GLI3_Y933] | 0.698
AISEGYKDFRA [CDA_Y79_V75I] | 0.536
FCRHNYGVVES [HLA-DRB1_Y112_YF] | 1.05
EKMWSYMKSAE [GRIA3_Y705] | 0.86
LIDSSYLTPTA [GREB1L_Y1063_R1066P] | 0.595
FEGAIYRKDIG [GART_Y417_V421I] | 0.71
LIHLHYIRKDF [BBS4_Y43_YF] | 2.75
QTLTDYDIRFF [CSNK2A1_Y131_YF] | 0.651
REVPVYTYSEP [FAM120B_Y368_D370Y] | 0.614
TKDTFYKQPMF [GBA_Y451] | 0.692
DFRTTYVNANE [KCNH2_Y475_N470D] | 2.23

Continued, values first:

SH2 binding enrichment | Sequence
0.65 | SVTCTNSPALN [TP53_Y126_Y126N]
0.753 | DGFIDYAEFAK [MCFD2_Y138_YF]
0.77 | VFFDLYGGEKF [PTPN11_Y66_D61V_YF]
1.74 | YGAHKYHPLPV [OAT_Y55_N54K]
0.782 | ARKWGYTVKGI [OAT_Y158]
0.739 | KNRDVYSSDYF [USP24_Y2134]
0.665 | RQAQAYRGQRV [TSHR_Y706]
0.543 | IQRSLYDRPAS [PDGFRA_Y762]
0.498 | PLDGEYVTLQI [TP53_Y327_F328V]
3.03 | LIGTPYWMAPE [PAK5_Y608_V604I]
0.974 | RSHLPYDVTPE [IQGAP3_Y1098]
0.549 | EAVLHYKHQNQ [MTOR_Y1804]
0.791 | VPLATYMQIYK [RPL21_Y30_R32Q]
0.763 | ARSHIYTFASC [MEFV_Y741]
0.495 | GLGVTYEQALA [MAP2_Y996]
0.613 | FIPFRYPKEFQ [IDS_Y234_H229Y_YF]
0.87 | VVHSSYDEIEG [SEC24A_Y263]

Molecular target: Grb2 SH2 (UniProt P62993)
Experiment: as above

Sequence | SH2 binding enrichment
PFSNSYENSLI [EPOR_Y489_P488S_YF] | 29.8
GHRPVYSEDEQ [CHST6_Y362_Y358H] | 1.1
IEENGYNTYAS [FGF10_Y161] | 0.759
DGSALYTGSAL [COL6A3_Y524] | 0.713
AHAGEYGEEAL [HBA1_Y25_A27E] | 0.745
RLKAKYAAATG [GLI3_Y933] | 0.811
AISEGYKDFRA [CDA_Y79_V75I] | 0.829
FCRHNYGVVES [HLA-DRB1_Y112_YF] | 1.19
EKMWSYMKSAE [GRIA3_Y705] | 0.972
LIDSSYLTPTA [GREB1L_Y1063_R1066P] | 1.2
FEGAIYRKDIG [GART_Y417_V421I] | 0.903
LIHLHYIRKDF [BBS4_Y43_YF] | 2.06
QTLTDYDIRFF [CSNK2A1_Y131_YF] | 0.794
REVPVYTYSEP [FAM120B_Y368_D370Y] | 0.853
TKDTFYKQPMF [GBA_Y451] | 0.571
DFRTTYVNANE [KCNH2_Y475_N470D] | 23.1

Further lines, results first:

SH2 binding enrichment | Sequence
0.659 | SVTCTNSPALN [TP53_Y126_Y126N]
0.829 | DGFIDYAEFAK [MCFD2_Y138_YF]
1.04 | VFFDLYGGEKF [PTPN11_Y66_D61V_YF]
1.65 | YGAHKYHPLPV [OAT_Y55_N54K]
0.779 | ARKWGYTVKGI [OAT_Y158]
0.796 | KNRDVYSSDYF [USP24_Y2134]
0.691 | RQAQAYRGQRV [TSHR_Y706]
0.83 | IQRSLYDRPAS [PDGFRA_Y762]
0.615 | PLDGEYVTLQI [TP53_Y327_F328V]
1.23 | LIGTPYWMAPE [PAK5_Y608_V604I]
0.827 | RSHLPYDVTPE [IQGAP3_Y1098]
0.904 | EAVLHYKHQNQ [MTOR_Y1804]
0.909 | VPLATYMQIYK [RPL21_Y30_R32Q]
0.834 | ARSHIYTFASC [MEFV_Y741]
0.784 | GLGVTYEQALA [MAP2_Y996]
0.876 | FIPFRYPKEFQ [IDS_Y234_H229Y_YF]
1.03 | VVHSSYDEIEG [SEC24A_Y263]

Molecular target: c-Src SH2
Experiment: as above

Sequence | SH2 binding enrichment
PFSNSYENSLI [EPOR_Y489_P488S_YF] | 5.68
GHRPVYSEDEQ [CHST6_Y362_Y358H] | 0.641
IEENGYNTYAS [FGF10_Y161] | 1.12
DGSALYTGSAL [COL6A3_Y524] | 0.382
AHAGEYGEEAL [HBA1_Y25_A27E] | 0.473
RLKAKYAAATG [GLI3_Y933] | 0.511
AISEGYKDFRA [CDA_Y79_V75I] | 0.31
FCRHNYGVVES [HLA-DRB1_Y112_YF] | 1.86
EKMWSYMKSAE [GRIA3_Y705] | 0.394
LIDSSYLTPTA [GREB1L_Y1063_R1066P] | 0.717
FEGAIYRKDIG [GART_Y417_V421I] | 0.563
LIHLHYIRKDF [BBS4_Y43_YF] | 1.6
QTLTDYDIRFF [CSNK2A1_Y131_YF] | 0.413
REVPVYTYSEP [FAM120B_Y368_D370Y] | 3.29
TKDTFYKQPMF [GBA_Y451] | 0.401
DFRTTYVNANE [KCNH2_Y475_N470D] | 2.81

Now from value to sequence:

SH2 binding enrichment | Sequence
0.385 | SVTCTNSPALN [TP53_Y126_Y126N]
0.397 | DGFIDYAEFAK [MCFD2_Y138_YF]
0.572 | VFFDLYGGEKF [PTPN11_Y66_D61V_YF]
1.36 | YGAHKYHPLPV [OAT_Y55_N54K]
0.479 | ARKWGYTVKGI [OAT_Y158]
0.644 | KNRDVYSSDYF [USP24_Y2134]
0.385 | RQAQAYRGQRV [TSHR_Y706]
1.98 | IQRSLYDRPAS [PDGFRA_Y762]
0.349 | PLDGEYVTLQI [TP53_Y327_F328V]
0.882 | LIGTPYWMAPE [PAK5_Y608_V604I]
0.588 | RSHLPYDVTPE [IQGAP3_Y1098]
0.677 | EAVLHYKHQNQ [MTOR_Y1804]
0.73 | VPLATYMQIYK [RPL21_Y30_R32Q]
1.66 | ARSHIYTFASC [MEFV_Y741]
0.572 | GLGVTYEQALA [MAP2_Y996]
0.534 | FIPFRYPKEFQ [IDS_Y234_H229Y_YF]
36.8 | VVHSSYDEIEG [SEC24A_Y263]
